Measured values reported in patent publication US20190338048A1 (published 2019).
Like-named read-outs stand apart in the source and are kept apart here.

How the values were obtained:
Assay in all cases: SPR
[1] = molecular target: His-tagged Influenza B Hemagglutinin (B/Brisbane/60/2008) (Influenza B virus (B/Brisbane/60/2008))
[2] = molecular target: T1, His-tagged recombinant human CD-19 (human, UniProt P15391 20-291, limits assumed)
T1 sequence (looked up): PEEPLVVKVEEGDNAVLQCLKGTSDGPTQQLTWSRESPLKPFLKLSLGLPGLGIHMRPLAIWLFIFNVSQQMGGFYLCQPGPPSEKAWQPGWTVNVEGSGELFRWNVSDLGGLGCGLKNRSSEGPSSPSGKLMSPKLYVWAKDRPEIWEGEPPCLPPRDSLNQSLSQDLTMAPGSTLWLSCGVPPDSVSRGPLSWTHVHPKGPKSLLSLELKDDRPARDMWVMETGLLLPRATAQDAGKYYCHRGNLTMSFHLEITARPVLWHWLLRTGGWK

[3] = molecular target: T1, His-tagged recombinant human CD-19; remark: listed apart in the source
[4] = molecular target: T2, His-tagged recombinant human CD-19 (human, UniProt P15391 20-291, limits assumed); remark: listed apart in the source
T2 sequence (looked up): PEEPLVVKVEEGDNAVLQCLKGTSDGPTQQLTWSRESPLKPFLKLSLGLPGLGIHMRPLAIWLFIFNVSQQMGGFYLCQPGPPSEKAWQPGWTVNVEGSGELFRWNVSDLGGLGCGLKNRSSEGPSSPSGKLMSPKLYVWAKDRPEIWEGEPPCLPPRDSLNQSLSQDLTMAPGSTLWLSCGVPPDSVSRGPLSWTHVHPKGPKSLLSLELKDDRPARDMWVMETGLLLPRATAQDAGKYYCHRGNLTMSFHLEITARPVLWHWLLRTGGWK

Recombinant human IL-17A [5] = molecular target: T3, Recombinant human IL-17A (human, UniProt Q16552 20-155, limits assumed)
T3 sequence (Q16552 20-155 limits assumed): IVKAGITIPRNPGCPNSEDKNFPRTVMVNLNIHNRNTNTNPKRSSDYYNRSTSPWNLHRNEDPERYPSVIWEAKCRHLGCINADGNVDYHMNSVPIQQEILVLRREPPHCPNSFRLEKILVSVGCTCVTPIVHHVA

[6] = molecular target: T4, His-tagged Influenza B Hemagglutinin (B/Brisbane/60/2008) (Influenza B (B/Brisbane/60/2008))
[7] = molecular target: T5, His-tagged recombinant human CD-19 (human, UniProt P15391 20-291, limits assumed); remark: listed apart in the source
T5 sequence (looked up): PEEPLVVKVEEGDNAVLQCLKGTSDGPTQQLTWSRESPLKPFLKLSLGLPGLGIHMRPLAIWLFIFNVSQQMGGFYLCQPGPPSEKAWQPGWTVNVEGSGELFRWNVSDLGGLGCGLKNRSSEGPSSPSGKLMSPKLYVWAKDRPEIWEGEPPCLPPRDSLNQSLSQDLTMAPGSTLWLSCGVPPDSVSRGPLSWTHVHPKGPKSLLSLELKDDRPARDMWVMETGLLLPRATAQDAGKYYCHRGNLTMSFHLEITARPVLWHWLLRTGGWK

Recombinant human IL-17A [8] = molecular target: T3, Recombinant human IL-17A; remark: listed apart in the source
[9] = molecular target: T4, His-tagged Influenza B Hemagglutinin …; remark: listed apart in the source
[10] = molecular target: T5, His-tagged recombinant human CD-19; remark: listed apart in the source

B1: Design 2979 bispecific antibody, System C (CR8071 H1/L1 & SGN-CD19a H2/L2) (bispecific antibody)
chain 1: QVQLVQSGAEVKKPGASVRVSCRASGYIFTESGITWVRQAPGQGLEWMGWISGYSGDTKYAQKLQGRVTMTKDTSTTTAYMELRSLRYDDTAVYYCARDVQYSGSYLGAYYFDYWSPGTLVTVSSASTKGPSVFPLAPSSKSTSGGTAALGCLVKDYFPEPVTVSWNSGALTSGVHTFPAVLQSSGLYSLKSVVTVPSSSLGTQTYICNVNHKPSNTKVDKKVEPKSCDKTHTCPPCPAPELLGGPSVFLFPPKPKDTLMISRTPEVTCVVVDVSHEDPEVKFNWYVDGVEVHNAKTKPREEQYNSTYRVVSVLTVLHQDWLNGKEYKCKVSNKALPAPIEKTISKAKGQPREPQVYVYPPSRDELTKNQVSLTCLVKGFYPSDIAVEWESNGQPENNYKTTPPVLDSDGSFALVSKLTVDKSRWQQGNVFSCSVMHEALHNHYTQKSLSLSPG
chain 2: not shown
chain 3: not shown
chain 4: EIVLTQSPATLSLSPGERATLSCSASSSVSYMHWYQQKPGQAPRLLIYDTSKLASGIPARFSGSGSGTDFTLTISSLEPEDFAVYYCFQGSVYPFTFGQGTKLEIKRTVAAPSVFIFPPSDEQLKSGTARVGCLLNNFYPREAKVQWKVDNALQSGNSQESVTEQDSKDSTYSLRSTLTLSKADYEKHKVYACEVTHQGLSSPVTKSFNRGEC
B1 was tested, and the Kd [1] was 0.93 nM, the Kd [2] was 45.1 nM and the “Difference in H2L2 log(KD) from wild type” value [3] was 0.7.

B2: Design 4040 SGN-CD19a H2L2 arm in OAA (one-armed antibody) format (antibody, V domains shown)
VH: QVTLRESGPALVKPTQTLTLTCTFSGFSLSTSGMGVGWIRQPPGKAPEWLAHIWWDDDKRYNPALKSRLTISKDTSKNQVVLTMTNMDPVDTAAYYCARMELWSYYFDYWGQGTLVTVSS
VL: EIVLTQSPATLSLSPGERATLSCSASSSVSYMHWYQQKPGQAFRLLIYDTSKLASGIPARFSGSGSGTDFTLTISSLEPEDFAVYYCFQGSVYPFTFGQGTKLEIKR
B2 was tested, and the Kd [4] was 22.4 nM.

B3: Design 4320 bispecific antibody, System A (CAT-2200 H1/L1 & Pertuzumab H2/L2) (bispecific antibody)
chain 1: not shown
chain 2: NFMLTQPHSVSESPGKTVTISCTRSSGSLANYYVQWYQQRPGSSPTIVIFANNQRPSGVPDRFSGSIDSSSNSASLTISGLKTEDEADYYCQTYDPYSVVFGGGTKLTVLGQPKAAPSVFLFPPSSEELQANTATLDCLISDFYPGAVTVAWKADSSPVKAGVETTTPSKQSNNKYAAFSYLSLTPEQWKSHRSYSCQVTHEGSTVEKTVAPTECS
chain 3: not shown
chain 4: DIQMTQSPSSLSASVGDRVTITCKASQDVSIGVAWYQQKPGKAPKLLIYSASYRYTGVPSRFSGSGSGTDFTLTISSLQPEDFATYYCQQYYIYPYTFGQGTKVEIKRTVAAPSVFIFPPSDEKLKSGTASVVCALNNFYPREAKVQWKVDNALQSGNSQESVTEQDSKDSTYSLSSRLTLSKADYEKHKVYACEVTHQGLSSPVTKSFNRGEC
B3 gave a Kd (Recombinant human IL-17A [5]) of 0.36 nM.

B4: Design 4320 bispecific antibody, System C (CR8071 H1/L1 & SGN-CD19a H2/L2) (bispecific antibody)
chain 1: QVQLVQSGAEVKKPGASVRVSCRASGYIFTESGITWVRQAPGQGLEWMGWISGYSGDTKYAQKLQGRVTMTKDTSTTTAYMELRSLRYDDTAVYYCARDVQYSGSYLGAYYFDYWSPGTLVTVSSASTKGPSVFPLAPSSKSTSGGTAALGCKVKDYFPEPVTVSWNSGALTSGVHTGPAVLQSSGLYSLSSVVTVPSSSLGTQTYICNVNHKPSNTKVDKKVEPKSCDKTHTCPPCPAPELLGGPSVFLFPPKPKDTLMISRTPEVTCVVVDVSHEDPEVKFNWYVDGVEVHNAKTKPREEQYNSTYRVVSVLTVLHQDWLNGKEYKCKVSNKALPAPIEKTISKAKGQPREPQVYVYPPSRDELTKNQVSLTCLVKGFYPSDIAVEWESNGQPENNYKTTPPVLDSDGSFALVSKLTVDKSRWQQGNVFSCSVMHEALHNHYTQKSLSLSPG
chain 2: not shown
chain 3: not shown
chain 4: EIVLTQSPATLSLSPGERATLSCSASSSVSYMHWYQQKPGQAPRLLIYDTSKLASGIPARFSGSGSGTDFTLTISSLEPEDFAVYYCFQGSVYPFTFGQGTKLEIKRTVAAPSVFIFPPSDEKLKSGTASVVCALNNFYPREAKVQWKVDNALQSGNSQESVTEQDSKDSTYSLSSRLTLSKADYEKHKVYACEVTHQGLSSPVTKSFNRGEC
Work on B4 yielded a Kd [6] of 0.49 nM and a Kd [7] of 258 nM.

B5: Design 2816 bispecific antibody, System A (CAT-2200 H1/L1 & Pertuzumab H2/L2) (bispecific antibody)
chain 1: not shown
chain 2: NFMLTQPHSVSESPGKTVTISCTRSSGSLANYYVQWYQQRPGSSPTIVIFANNQRPSGVPDRFSGSIDSSSNSASLTISGLKTEDEADYYCQTYDPYSVVFGGGTKLTVLGQPKAAPSVTLFPPSSEELQANKATLVCLISDFYPGAVTVAWKADSSPVKAGVETTTPSKQSNNKYAASSYLELTPEQWKSHRSYSCQVTHEGSTVEKTVAPTECS
chain 3: not shown
chain 4: DIQMTQSPSSLSASVGDRVTITCKASQDVSIGVAWYQQKPGKAPKLLIYSASYRYTGVPSRFSGSGSGTDFTLTISSLQPEDFATYYCQQYYIYPYTFGQGTKVEIKRTVAAPSVFIFPPSDERLKSGTASVVCLLNNFYPREAKVQWKVDNALQSGNSKESVTEQDSKDSTYSLSSRLTLSKADYEKHKVYACEVTHQGLSSPVTKSFNRGEC
In the case of B5, the Kd (Recombinant human IL-17A [8]) is reported as 0.51 nM.

B6: Design 2816 bispecific antibody, System C (CR8071 H1/L1 & SGN-CD19a H2/L2) (bispecific antibody)
chain 1: QVQLVQSGAEVKKPGASVRVSCRASGYIFTESGITWVRQAPGQGLEWMGWISGYSGDTKYAQKLQGRVTMTKDTSTTTAYMELRSLRYDDTAVYYCARDVQYSGSYLGAYYFDYWSPGTLVTVSSASTKGPSVFPLAPSSKSTSGGTAALGCLVKDYFPEPVTVSWNSGALTSGVHTFPAVLKSSGLYSLSSVVTVPSSSLGTQTYICNVNHKPSNTKVDKKVEPKSCDKTHTCPPCPAPELLGGPSVFLFPPKPKDTLMISRTPEVTCVVVDVSHEDPEVKFNWYVDGVEVHNAKTKPREEQYNSTYRVVSVLTVLHQDWLNGKEYKCKVSNKALPAPIEKTISKAKGQPREPQVYVYPPSRDELTKNQVSLTCLVKGFYPSDIAVEWESNGQPENNYKTTPPVLDSDGSFALVSKLTVDKSRWQQGNVFSCSVMHEALHNHYTQKSLSLSPG
chain 2: not shown
chain 3: not shown
chain 4: EIVLTQSPATLSLSPGERATLSCSASSSVSYMHWYQQKPGQAPRLLIYDTSKLASGIPARFSGSGSGTDFTLTISSLEPEDFAVYYCFQGSVYPFTFGQGTKLEIKRTVAAPSVFIFPPSDERLKSGTASVVCLLNNFYPREAKVQWKVDNALQSGNSKESVTEQDSKDSTYSLSSRLTLSKADYEKHKVYACEVTHQGLSSPVTKSFNRGEC
For B6, the Kd [9] was 0.42 nM and the Kd [10] was 281 nM.
